Patent US20210277126A1 (LEGEND BIOTECH IRELAND, published 2021)

Assays:
[1] = molecular target: T1, cynomolgus monkey CLL1 ECD (65-265) (cynomolgus monkey); experiment: SPR (Biacore T200), sdAb supernatant, recombinant cynomolgus CLL1
T1 construct: Expressed in 293-F cells and purified by IMAC; also called cynoCLL1; recombinant cynomolgus monkey CLL1 protein
T1 chain: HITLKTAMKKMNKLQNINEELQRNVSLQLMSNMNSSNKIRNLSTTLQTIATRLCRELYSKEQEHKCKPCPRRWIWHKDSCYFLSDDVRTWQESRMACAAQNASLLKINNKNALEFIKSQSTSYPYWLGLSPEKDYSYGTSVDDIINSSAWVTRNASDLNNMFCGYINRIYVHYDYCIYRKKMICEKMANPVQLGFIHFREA
Method: (§1) The unique clones were grown in 2YT medium and induced by IPTG for sdAb expression in the supernatant. The supernatants of unique binders were analyzed for their ability to bind to a CLL1-expressing HKE293/huCLL-1 cell line and cancer cell line AML193 using a FACS assay. Affinities of selected binders in supernatants to recombinant human and cynomolgus monkey CLL1 proteins were determined by surface plasmon resonance (SPR) on a BIACORE® T200 instrument. The dissociation phase was used to calculate the kd values for each sdAb.

[2] = molecular target: T2, human CLL1 ECD (65-265) (human, UniProt Q5QGZ9 65-265); experiment: SPR (Biacore T200), sdAb supernatant, recombinant human CLL1
T2 construct: Expressed in 293-F cells and purified by IMAC; also called huCLL1; recombinant human CLL1 protein
T2 sequence: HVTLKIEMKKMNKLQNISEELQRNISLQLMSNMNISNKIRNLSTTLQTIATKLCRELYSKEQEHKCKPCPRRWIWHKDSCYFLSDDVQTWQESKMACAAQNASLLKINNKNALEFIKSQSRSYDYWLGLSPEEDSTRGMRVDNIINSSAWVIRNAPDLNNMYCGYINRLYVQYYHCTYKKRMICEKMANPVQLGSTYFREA
Method: as §1

B1: AS83457 sdAb (VHH)
VHH: QVQLVESGGGLVQPGGSLRLSCAASGFFFSIYDMNWFRQAPGKGLEWVSGITGNGYTTAYADSVKGRFTISRDNAKNTLYLQLNSLKSEDTAMYYCAQGSNRGRGTQVTVSS
notes: Camel sdAb tested as E. coli culture supernatant; not shown: C-terminal His-tag encoded by the soluble expression vector
Kd [1]: 19 nM
Kd [2]: 31 nM

B2: AS82494 sdAb (VHH)
VHH: QVQLVESGGGLVQPGGSLRLSCAASGFTFSVYDMNWFRQAPGKGLEWVSGITGNGYTTSYADSVKGRFTISRDNAKNTLYLQLNSLKSEDTAMYYCAKETNRGQGTQVTVSS
notes: as for B1
Kd [1]: 98 nM
Kd [2]: 21 nM

B3: AS83010 sdAb (VHH)
VHH: QVQLVESGGGLVQPGGSLRLSCVASGFFFSAYDMNWFRQAPGKGLEWVSGITGNGYTTAYADSVKGRFTISRDNAKNTLYLQLNSLKSEDTAMYYCTEGDNRGQGTQVTVSS
notes: as for B1
Kd [1]: 3.2 nM
Kd [2]: 8.4 nM

B4: AS82480 sdAb (VHH)
VHH: EVQLVESGGGSVQAGGSLRLSCAASGVTYSSACMGWFRQAPGKGREVVAVLYAGGSTTHYASSVKERFTISQDNAKNTVYLQMNSLKPEDTAVYYCAAALGDRSSCEWRYWGQGTQVTVSS
notes: as for B1
Kd [1]: 47 nM
Kd [2]: 1.5 nM

B5: AS83591 sdAb (VHH)
VHH: QVQLVESGGGLVQPGGSLRLSCAASGFLFSIYDMNWVRQAPGKGVEWIAGITNNEHTTAYADSVKGRFTISRDNTKNTLFLQMNSLKPEDTAMYYCQRDDGQVRGQGTQVTVSS
notes: as for B1
Kd [1]: 19 nM
Kd [2]: 31 nM

B6: AS82505 sdAb (VHH)
VHH: QVQLAESGGGLVQPGGSLRLSCVASGFTFSSYDMSWVRQAPGKGVEWVSTINSGGGSTYYAESAKGRFTISRDNAKNTLYLQLNSLKTEDTAMYYCVKGFPDDDGPGELSREYNYWGQGTQVTVSS
notes: as for B1
Kd [1]: 0.59 nM
Kd [2]: 0.83 nM

B7: AS82544 sdAb (VHH)
VHH: EVQLVESGGALVQPGGSLRLSCTASGFLFRVYDMNWVRQAPGKGVEWIVGITNNGYTTAYADSVKGRFTISRDNTENTLFLQMNSLKPEDTAMYYCQTDNGRVRGQGTQVTVSS
notes: as for B1
Kd [1]: 39 nM
Kd [2]: 8.6 nM

B8: AS82658 sdAb (VHH)
VHH: QVQLVESGGGSVQAGGALSLSCAASGYTVRIDYMGWYRQTPGKGREPVATIASNGGTAYADSVEGRFTISQDNAKNSVYLQMNTLKPGDTAMYYCAAGTWPTLTYFGQGTQVTVSS
notes: as for B1
Kd [1]: 1.9 nM
Kd [2]: 1.6 nM

B9: AS82718 sdAb (VHH)
VHH: QVQLAESGGGLVQTGGSLRLSCTASGLNFGLYAMGWFRQAPGKEREGVSCINGGGGITVYSDFVKSRFTISRDNAKNTLYLQMNSLKPDDTATYYCAADRSPFGSCSSDWSRSSDWSRMAEKFGYWGQGTQVTVSS
notes: as for B1
Kd [1]: 2.6 nM
Kd [2]: 24 nM

B10: AS83180 sdAb (VHH)
VHH: QVQLVESGGGSVQAGGSLRLSCVVSAATNCRYIAWYRQAPGKAREFVSTLGSDGNTNYADSVKGRFTISQGNIKNMAYLEMNSLKPEDTGMYYCGTRCQIGDDWRSSDWAQGTQVTVSS
notes: as for B1
Kd [1]: 2.4 nM
Kd [2]: 3 nM

B11: AS83183 sdAb (VHH)
VHH: QVHLVESGGGSVQSGGSLRLSCAASGYAYRSYCMGWFRQAPGKVLEGVAAIESDGTTTYADSVMGRFTISQDNAKNALYLQMNSLKPEDTAMYHCAAVKGSCDSASSDTPSYWGQGTQVTVSS
notes: as for B1
Kd [1]: 0.26 nM
Kd [2]: 1 nM

B12: AS83309 sdAb (VHH)
VHH: EVQLVESGGDLVRPGGSLRLSCAASGFTFSIYDMNWVRQAPGKGLEWVAGISGNGYSTSYAESVKGRFTISKDNAKNTVYLQLSSLKFEDTAMYYCVRGGEKWDENDLRRKGQGTQVTVSS
notes: as for B1
Kd [1]: 0.63 nM
Kd [2]: 7.3 nM

B13: AS83431 sdAb (VHH)
VHH: QVRLVESGGGSVQSGGSLRLSCAASGYARSSTCLGWFRQAPGKEVEGVAIIGRDGSTGYADSVKGRFTISQDNAKNTLYLHMDSLKPEDTAMYYCAAVEGGCEVSEGTGEQQLAYWGQGTQVTVSS
notes: as for B1
Kd [1]: 0.24 nM
Kd [2]: 0.37 nM

B14: AS83478 sdAb (VHH)
VHH: QVHLMESGGGLVQPGESLRLSCAASGFIFANYEMSWVRQAPGKVLEWVSGINSRGNATYYADSVKGRFTISRDNAEHTLYLQMNSLKPEDTAMYHCVVGGMTTDQGSPDFYWGQGTQVTVSS
notes: as for B1
Kd [1]: 1.4 nM
Kd [2]: 2 nM

B15: AS83791 sdAb (VHH)
VHH: QVKLVESGGGLVQPGGSLRLSCVASGFAFSSADMSWVRQAPGKGVEAVSVINRDGASTYYADSVKGRFTISRDNAKSTLYLQMNSLKPEDTAMYHCAVVPENEYESGSYNYWGQGTQVTVSS
notes: Tested as E. coli culture supernatant; not shown: C-terminal His-tag encoded by the soluble expression vector
Kd [1]: 0.22 nM
Kd [2]: 0.44 nM
